From US20260167724A1 come the findings set out here.

Where “and” joins values, the source holds several entries; their conditions need not be identical. Equal values may be shown once.

This assay addresses CD3 on the Jurkat cell. Nature of the assay: cell-based or functional assay.

B1: Axl-WT×CD3-WT (bispecific antibody, part only; not given: constant regions and linkers, not shown: a dimerising Fc or GST)
heavy: EVQLVQSGAEVKKPGATVKISCKVSGYSFTGHTMNWIRQPPGKGLEWIGLIKPSNGGTSYNQKFKGRVTISADKSISTAYLQWSSLKASDTAMYYCAHGHYESYFAMDYWGQGTSVTVSS
light (part 1 of 2), part: DIQMTQSPSSLSASVGDRVTITCKASQDVSSAVAWYQQKPGQAPRLLIYWASTRHTGVPSRFSGSGSGTEFTLTISSLQPDDFATYYCQEHFSTPLTFGQGTKVEIK
light (part 2 of 2), part: QAVVTQEPSLTVSPGGTVTLTCRSSTGAVTTSNYANWVQQKPGQAPRGLIGGTNKRAPWTPARFSGSLLGGKAALTITGAQAEDEADYYCALWYSNLWVFGGGTKLTVLGEVQLVESGGGLVQPGGSLRLSCAASGFTFNTYAMNWVRQAPGKGLEWVARIRSKYNNYATYYADSVKDRFTISRDDSKNSLYLQMNSLKTEDTAVYYCVRHGNFGNSYVSWFAYWGQGTLVTVSS
Consider B1, for which the Luciferase Amount, pH 6.0, at CHO-Axl concentration (ng/mL) 0.00000 is 893 RLU and 937 RLU; the Luciferase Amount, pH 6.0, at CHO-Axl concentration (ng/mL) 0.01000 was 1230 RLU and 1330 RLU; the Luciferase Amount, pH 6.0, at CHO-Axl concentration (ng/mL) 0.1000 was 2310 RLU and 2000 RLU; the Luciferase Amount, pH 6.0, at CHO-Axl concentration (ng/mL) 1.000 was 10700 RLU and 10000 RLU. Also, the Luciferase Amount, pH 6.0, at CHO-Axl concentration (ng/mL) 10.00 is 44900 RLU and 46700 RLU; the Luciferase Amount, pH 6.0, at CHO-Axl concentration (ng/mL) 100.0 was 77200 RLU and 83200 RLU; the Luciferase Amount, pH 6.0, at CHO-Axl concentration (ng/mL) 1000.0 is 96200 RLU and 90400 RLU; the Luciferase Amount, pH 6.0, at CHO-Axl concentration (ng/mL) 10000.0 was 100000 RLU and 102000 RLU. In addition, the Luciferase Amount, pH 7.4, at CHO-Axl concentration (ng/mL) 0.00000 is 2280 RLU and 2160 RLU; the Luciferase Amount, pH 7.4, at CHO-Axl concentration (ng/mL) 0.01000 was 2270 RLU and 2350 RLU; the Luciferase Amount, pH 7.4, at CHO-Axl concentration (ng/mL) 0.1000 was 3930 RLU and 3970 RLU; the Luciferase Amount, pH 7.4, at CHO-Axl concentration (ng/mL) 1.000 was 17700 RLU and 18400 RLU. For the same molecule, the Luciferase Amount, pH 7.4, at CHO-Axl concentration (ng/mL) 10.00 is 51800 RLU and 57100 RLU; the Luciferase Amount, pH 7.4, at CHO-Axl concentration (ng/mL) 100.0 was 94100 RLU and 99200 RLU; the Luciferase Amount, pH 7.4, at CHO-Axl concentration (ng/mL) 1000.0 is 113000 RLU and 112000 RLU; the Luciferase Amount, pH 7.4, at CHO-Axl concentration (ng/mL) 10000.0 was 135000 RLU and 139000 RLU.
